Reference: patent publication US20220402985A1
Substitutions are numbered along the chain they refer to. Numbers in names are those of the source. Where “and” joins values, the source holds several entries; their conditions need not be identical. Identical values can stand only once. Each block holds one binder with its values, some of them ahead of it.

Assays:
[1] = biological target: ErbB3 on rat Schwann cells (rat) (UniProt Q62799); experiment: cell-based or functional assay
[2] = biological target: ErbB4 on neonatal rat cardiomyocytes (rat) (UniProt Q62956); experiment: cell-based or functional assay
Sequence of ErbB4 on neonatal rat cardiomyocytes (rat) (Q62956 26-1308): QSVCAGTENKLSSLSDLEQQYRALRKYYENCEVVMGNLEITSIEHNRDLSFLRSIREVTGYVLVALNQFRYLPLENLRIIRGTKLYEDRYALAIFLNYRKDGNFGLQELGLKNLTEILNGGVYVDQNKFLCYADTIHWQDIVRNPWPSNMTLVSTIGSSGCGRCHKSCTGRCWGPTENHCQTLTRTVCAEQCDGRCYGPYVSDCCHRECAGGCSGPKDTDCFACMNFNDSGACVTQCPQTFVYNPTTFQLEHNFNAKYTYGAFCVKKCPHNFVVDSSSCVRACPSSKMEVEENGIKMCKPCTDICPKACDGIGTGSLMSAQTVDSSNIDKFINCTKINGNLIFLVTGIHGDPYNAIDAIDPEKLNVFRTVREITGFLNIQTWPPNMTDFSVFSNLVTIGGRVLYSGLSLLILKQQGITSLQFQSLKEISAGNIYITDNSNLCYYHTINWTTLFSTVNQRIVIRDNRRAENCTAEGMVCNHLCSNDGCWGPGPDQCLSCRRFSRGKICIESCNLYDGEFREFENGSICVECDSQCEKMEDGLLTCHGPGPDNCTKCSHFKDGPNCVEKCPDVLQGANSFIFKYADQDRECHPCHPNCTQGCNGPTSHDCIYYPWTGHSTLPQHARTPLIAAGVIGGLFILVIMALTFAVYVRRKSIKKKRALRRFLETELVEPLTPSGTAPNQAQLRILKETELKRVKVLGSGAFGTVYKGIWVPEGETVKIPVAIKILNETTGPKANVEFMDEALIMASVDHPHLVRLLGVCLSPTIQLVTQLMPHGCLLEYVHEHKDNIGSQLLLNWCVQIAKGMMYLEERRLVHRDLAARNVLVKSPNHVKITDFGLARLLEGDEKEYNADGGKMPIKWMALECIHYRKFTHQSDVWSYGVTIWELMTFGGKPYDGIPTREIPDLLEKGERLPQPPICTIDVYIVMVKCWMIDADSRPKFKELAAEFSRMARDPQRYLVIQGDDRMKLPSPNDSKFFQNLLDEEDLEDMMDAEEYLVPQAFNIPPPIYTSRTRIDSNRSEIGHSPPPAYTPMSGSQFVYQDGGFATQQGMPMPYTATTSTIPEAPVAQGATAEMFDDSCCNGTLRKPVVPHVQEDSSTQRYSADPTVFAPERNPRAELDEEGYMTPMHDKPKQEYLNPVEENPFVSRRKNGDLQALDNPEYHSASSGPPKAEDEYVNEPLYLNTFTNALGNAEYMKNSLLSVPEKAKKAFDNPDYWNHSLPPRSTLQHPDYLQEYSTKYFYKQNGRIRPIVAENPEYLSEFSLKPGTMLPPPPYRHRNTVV

Sequence of ErbB3 on rat Schwann cells (rat) (Q62799 20-1339): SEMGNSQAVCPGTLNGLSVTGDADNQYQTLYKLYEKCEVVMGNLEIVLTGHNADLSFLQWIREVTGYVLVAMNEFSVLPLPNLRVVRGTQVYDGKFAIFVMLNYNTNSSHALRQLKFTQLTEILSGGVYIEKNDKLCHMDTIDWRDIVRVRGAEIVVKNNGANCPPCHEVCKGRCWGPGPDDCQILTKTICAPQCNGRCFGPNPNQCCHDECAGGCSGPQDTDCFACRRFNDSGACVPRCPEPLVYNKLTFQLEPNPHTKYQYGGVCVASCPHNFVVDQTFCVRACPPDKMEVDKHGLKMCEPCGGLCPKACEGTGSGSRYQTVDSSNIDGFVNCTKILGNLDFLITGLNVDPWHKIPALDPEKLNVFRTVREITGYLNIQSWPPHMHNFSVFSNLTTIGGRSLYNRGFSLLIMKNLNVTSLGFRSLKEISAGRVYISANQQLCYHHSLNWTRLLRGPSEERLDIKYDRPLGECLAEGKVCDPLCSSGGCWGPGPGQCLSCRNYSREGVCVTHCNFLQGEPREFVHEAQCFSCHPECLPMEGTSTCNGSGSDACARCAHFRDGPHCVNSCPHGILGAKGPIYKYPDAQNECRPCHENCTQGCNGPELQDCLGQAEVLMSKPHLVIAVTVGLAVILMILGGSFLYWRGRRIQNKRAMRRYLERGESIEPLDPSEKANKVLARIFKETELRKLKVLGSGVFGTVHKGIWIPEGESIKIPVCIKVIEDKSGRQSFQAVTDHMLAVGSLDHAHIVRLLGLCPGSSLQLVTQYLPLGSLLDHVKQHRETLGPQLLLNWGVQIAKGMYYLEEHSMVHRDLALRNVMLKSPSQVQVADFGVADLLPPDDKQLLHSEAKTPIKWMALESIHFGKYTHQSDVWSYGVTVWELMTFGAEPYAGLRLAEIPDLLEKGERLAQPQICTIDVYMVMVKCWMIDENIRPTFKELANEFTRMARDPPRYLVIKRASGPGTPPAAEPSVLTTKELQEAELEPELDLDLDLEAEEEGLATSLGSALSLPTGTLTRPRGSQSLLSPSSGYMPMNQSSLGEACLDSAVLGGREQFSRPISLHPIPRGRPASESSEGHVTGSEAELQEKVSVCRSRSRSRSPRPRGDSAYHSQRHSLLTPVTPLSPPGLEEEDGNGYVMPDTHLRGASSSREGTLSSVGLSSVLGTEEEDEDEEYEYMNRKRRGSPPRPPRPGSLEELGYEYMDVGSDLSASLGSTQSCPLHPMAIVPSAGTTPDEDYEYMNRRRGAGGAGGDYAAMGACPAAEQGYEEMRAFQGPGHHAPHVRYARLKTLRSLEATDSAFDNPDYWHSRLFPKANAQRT

B3: huNRG1(S177-Q237)()200E_KDF)::GG::huFcSEFL2 (Pb) (Fc fusion)
chain: SHLVKCAEKEKTFCVNGGECFMVEDLSNPSRYLCKCPNEFTGDRCQKDFMASFYKAEELYQGGDKTHTCPPCPAPELLGGPSVFLFPPKPKDTLMISRTPEVTCVVVDVSHEDPEVKFNWYVDGVEVHNAKTKPCEEQYGSTYRCVSVLTVLHQDWLNGKEYKCKVSNKALPAPIEKTISKAKGQPREPQVYTLPPSREEMTKNQVSLTCLVKGFYPSDIAVEWESNGQPENNYKTTPPVLDSDGSFFLYSKLTVDKSRWQQGNVFSCSVMHEALHNHYTQKSLSLSPGK
Schwann cells (SC) (ErbB3) Avg EC50 [1]: 121 nM
Cardiomyocyte (CM) (ErbB4) Avg EC50 [2]: 2 nM
Selectivity SC/CM [2]: 60

B6: huNRG1(S177-Q237)(_200E)::GG::huFcSEFL2 (Pb) (Fc fusion)
chain: B3 chain with K47N, D48Y, F49V
Schwann cells (SC) (ErbB3) Avg EC50 [1]: 4.82 nM
Cardiomyocyte (CM) (ErbB4) Avg EC50 [2]: 0.452 nM
Selectivity SC/CM [2]: 11

B7: huNRG1(S177-Q237)(3E6)::GG::huFcSEFL2 (Pb) (Fc fusion)
chain: B3 chain with E10H, T12S, F21Y, M22V, V23I, D25G, L26S, N28I, Y32F
Schwann cells (SC) (ErbB3) Avg EC50 [1]: > 10000 nM
Cardiomyocyte (CM) (ErbB4) Avg EC50 [2]: 0.35 nM
Selectivity SC/CM [2]: > 10000

B11: huNRG1(S177-Q237)(3H8)::GG::huFcSEFL2 (Pb) (Fc fusion)
chain: B3 chain with A7G, E10H, T12S, F21Y, D25G, L26S, N28I, K47E
Schwann cells (SC) (ErbB3) Avg EC50 [1]: > 10000 nM
Cardiomyocyte (CM) (ErbB4) Avg EC50 [2]: 0.276 nM
Selectivity SC/CM [2]: > 10000

B12: huNRG1(S177-Q237)(3E9)::GG::huFcSEFL2 (Pb) (Fc fusion)
chain: B3 chain with K9N, E10H, M22V, V23I, D25G, L26S, K47D, D48V, M50L
Schwann cells (SC) (ErbB3) Avg EC50 [1]: > 3000 nM
CM % Agonism AVG [2]: 70%
Cardiomyocyte (CM) (ErbB4) Avg EC50 [2]: 2.68 nM
Selectivity SC/CM [2]: > 8500

B13: huNRG1(S177-Q237)(v80.3)::GG::huFcSEFL2 (Pb) (Fc fusion)
chain: B3 chain with K9R, E10H, T12S, M22V, V23I, D25G, L26S, N28I, Q46E, F49V
Schwann cells (SC) (ErbB3) Avg EC50 [1]: 3000 nM
Cardiomyocyte (CM) (ErbB4) Avg EC50 [2]: 33.6 nM
Selectivity SC/CM [2]: 89

B14: huNRG1(S177-Q237)(v80)::GG::huFcSEFL2 (Pb) (Fc fusion)
chain: B3 chain with K9S, E10H, T12S, M22V, V23I, D25G, L26S, N28I, F49V
Schwann cells (SC) (ErbB3) Avg EC50 [1]: 6.65 nM
Cardiomyocyte (CM) (ErbB4) Avg EC50 [2]: 0.998 nM
Selectivity SC/CM [2]: 7

B15: huNRG1(S177-F229)(NRGE1C)::1KmodT482V, M493L)::huFcSEFL2 (Pb) (Fc fusion)
chain: SHLVKCGEKHKSFCVNGGECFMIEGPSNPSRYLCKCPNEFTGDRCQEDFMASFGSGSATGGSGSVASSGSGSATHLDKTHTCPPCPAPELLGGPSVFLFPPKPKDTLMISRTPEVTCVVVDVSHEDPEVKFNWYVDGVEVHNAKTKPCEEQYGSTYRCVSVLTVLHQDWLNGKEYKCKVSNKALPAPIEKTISKAKGQPREPQVYTLPPSREEMTKNQVSLTCLVKGFYPSDIAVEWESNGQPENNYKTTPPVLDSDGSFFLYSKLTVDKSRWQQGNVFSCSVMHEALHNHYTQKSLSLSPGK
Schwann cells (SC) (ErbB3) Avg EC50 [1]: > 10000 nM
CM % Agonism AVG [2]: 75.8%
Cardiomyocyte (CM) (ErbB4) Avg EC50 [2]: 0.4 nM
Selectivity SC/CM [2]: > 10000

Second part, the binder after the results:

Schwann cells (SC) (ErbB3) Avg EC50 [1]: > 3000 nM
CM % Agonism AVG [2]: < 50%
Cardiomyocyte (CM) (ErbB4) Avg EC50 [2]: 0.51 nM
Selectivity SC/CM [2]: > 5800
B1: huNRG1(S177-Q237)(3D8)::GG::huFcSEFL2 (Pb) (Fc fusion)
chain: B3 chain with A7G, E10D, N28I, Y32F, K47D, D48F

Schwann cells (SC) (ErbB3) Avg EC50 [1]: > 10000 nM
Cardiomyocyte (CM) (ErbB4) Avg EC50 [2]: 0.581 nM
Selectivity SC/CM [2]: > 10000
B2: huNRG1(S177-Q237)(3G9)::GG::huFcSEFL2 (Pb) (Fc fusion)
chain: B3 chain with A7G, K9S, E10H, T12S, Y32F

Schwann cells (SC) (ErbB3) Avg EC50 [1]: > 10000 nM
CM % Agonism AVG [2]: 70%
Cardiomyocyte (CM) (ErbB4) Avg EC50 [2]: 0.738 nM
Selectivity SC/CM [2]: > 10000
B4: huNRG1(S177-Q237)(3F2)::GG::huFcSEFL2 (Pb) (Fc fusion)
chain: B3 chain with A7G, K9S, E10H, T12S, V23I, D25G, L26P, K47D

Schwann cells (SC) (ErbB3) Avg EC50 [1]: > 10000 nM
CM % Agonism AVG [2]: 70%
Cardiomyocyte (CM) (ErbB4) Avg EC50 [2]: 1.84 nM
Selectivity SC/CM [2]: > 5400
B5: huNRG1(S177-Q237)(3G3)::GG::huFcSEFL2 (Pb) (Fc fusion)
chain: B3 chain with A7G, K9R, V23I, D25H, N28I, Y32F, K47E

Schwann cells (SC) (ErbB3) Avg EC50 [1]: > 10000 nM
Cardiomyocyte (CM) (ErbB4) Avg EC50 [2]: 1.27 nM
Selectivity SC/CM [2]: > 7800
B8: huNRG1(S177-Q237)(3H5)::GG::huFcSEFL2 (Pb) (Fc fusion)
chain: SHLVKCGERHKSFCVNGGECYVVERPSIPSRFLCKCPNEFTGDRCQKDFLASFYKAEELYQGGDKTHTCPPCPAPELLGGPSVFLFPPKPKDTLMISRTPEVTCVVVDVSHEDPEVKFNWYVDGVEVHNAKTKPCEEQYGSTYRCVSVLTVLHQDWLNGKEYKCKVSNKALPAPIEKTISKAKGQPREPQVYTLPPSREEMTKNQVSLTCLVKGFYPSDIAVEWESNGQPENNYKTTPPVLDSDGSFFLYSKLTVDKSRWQQGNVFSCSVMHEALHNHYTQKSLSLSPGK

Schwann cells (SC) (ErbB3) Avg EC50 [1]: 4.27 nM
Cardiomyocyte (CM) (ErbB4) Avg EC50 [2]: 0.177 nM
Selectivity SC/CM [2]: 24
B9: huNRG1(S177-Q237)(_FVIEDPSI)::GG::huFcSEFL2 (Pb) (Fc fusion)
chain: B3 chain with M22V, V23I, L26P, N28I, K47N, D48Y, F49V

Schwann cells (SC) (ErbB3) Avg EC50 [1]: 0.112 nM and 0.15 nM
Cardiomyocyte (CM) (ErbB4) Avg EC50 [2]: 0.275 nM and 0.6 nM
Selectivity SC/CM [2]: 0.4 and 0.3
B10: huNRG1(S177-Q237)(wt)::GG::huFcSEFL2 (Pb) (Fc fusion)
chain: B3 chain with E24K, K47N, D48Y, F49V
